According to the supplement of paper PMC7125110:
± gives the standard error. For part of these data: Variants at the floor of the assay were thinned out.

B1: glmS ribozyme (parent)
chain: AUAAAAGCGCCAGAACUACAGAAAUGUAGUUGACGAGGAGGAGGUUUAUCGAAUUUUCGGCGGAUGCCUCCAAA

What was measured:
Settings in all cases: with glucosamine-6-phosphate
glucosamine-6-phosphate [1] = variants of: B1; experiment: kcat; higher = faster cleavage; RNA array
How it was run: (§1)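 The measurements used barcoded ribozyme variants on sequenced MiSeq chips, transcribed in situ by E. coli RNA polymerase and tracked at 37 °C with a hybridised Cy3 probe. Glucosamine-6-phosphate, 40 μM to 10 mM in HEPES/KCl/Mg(OAc)2 buffer, was flowed in while tiles were imaged over ~14 h. Baseline-normalised signals, also normalised to non-cleaving reference variants, gave per-tile medians that were fit to one- or two-exponential decays for kobs. kcat and KM resulted from weighted Michaelis–Menten fits across concentrations.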

glucosamine-6-phosphate [2] = variants of: B1; experiment: self-cleavage kobs at 40 uM GlcN6P; higher = faster cleavage; RNA array
How it was run: as §1

glucosamine-6-phosphate [3] = variants of: B1; experiment: self-cleavage kobs at 10000 uM GlcN6P; higher = faster cleavage; RNA array
How it was run: as §1

glucosamine-6-phosphate [4] = variants of: B1; experiment: KM; higher = weaker cofactor use; RNA array
How it was run: as §1

glucosamine-6-phosphate [5] = variants of: B1; experiment: self-cleavage kobs at 160 uM GlcN6P; higher = faster cleavage; RNA array
How it was run: as §1

glucosamine-6-phosphate [6] = variants of: B1; experiment: self-cleavage kobs at 640 uM GlcN6P; higher = faster cleavage; RNA array
How it was run: as §1

glucosamine-6-phosphate [7] = variants of: B1; experiment: self-cleavage kobs at 2500 uM GlcN6P; higher = faster cleavage; RNA array
How it was run: as §1

Row | Variant | kcat (glucosamine-6-phosphate [1]) [s⁻¹] | self-cleavage kobs at 40 uM GlcN6P (glucosamine-6-phosphate [2]) [s⁻¹] | self-cleavage kobs at 10000 uM GlcN6P (glucosamine-6-phosphate [3]) [s⁻¹] | KM (glucosamine-6-phosphate [4]) [µM] | self-cleavage kobs at 160 uM GlcN6P (glucosamine-6-phosphate [5]) [s⁻¹] | self-cleavage kobs at 640 uM GlcN6P (glucosamine-6-phosphate [6]) [s⁻¹] | self-cleavage kobs at 2500 uM GlcN6P (glucosamine-6-phosphate [7]) [s⁻¹]
1 | A6U C58G | < 1e-05 | < 1e-05 | < 1e-05 |  |  |  | 
2 | U31C U54A | 0.00685 ± 0.0022 | 0.000119 ± 1.5e-05 | 0.006 ± 0.00078 | 2980 ± 1300 | 0.000268 ± 5.9e-05 | 0.00122 ± 0.00019 | 0.00228 ± 0.00051
3 | U46C U54G | 0.00333 ± 0.00031 | 9.45e-05 ± 1.5e-05 | 0.00287 ± 0.0004 | 1370 ± 200 |  | 0.000997 ± 0.00031 | 0.00284 ± 0.00085
4 | C50G C71G | 0.000204 ± 3.9e-05 | 0.000109 ± 9.6e-06 |  |  | 0.000249 ± 4.4e-05 | 0.000149 ± 2.4e-05 | 0.000242 ± 3.1e-05
5 | A39U G60A | 2.79e-05 ± 2e-06 |  |  | 5820 ± 1100 | < 1e-05 |  | 
6 | G38A A52C | 1.04e-05 ± 2.3e-07 |  | < 1e-05 | 129 ± 16 |  | < 1e-05 | 
7 | G32U A33U | < 1e-05 | < 1e-05 |  |  | < 1e-05 |  | < 1e-05
8 | U56A U57A | 0.000351 ± 3.9e-05 |  | 0.00025 ± 4.4e-05 | 3720 ± 820 |  | 4.44e-05 ± 1.7e-05 | 0.000155 ± 3.3e-05
9 | G32A A64C | 1.13e-05 ± 9e-07 |  |  | 1760 ± 490 |  |  | 
10 | G7A C16G | < 1e-05 | < 1e-05 | < 1e-05 |  | < 1e-05 |  | < 1e-05
11 | A14G A64U | 0.000311 ± 2.2e-05 |  | 0.000257 ± 2.3e-05 | 1830 ± 300 |  | 7.9e-05 ± 1e-05 | 0.000199 ± 2.7e-05
12 | G44U C71U | 0.000114 ± 4.5e-05 | < 1e-05 | 8.62e-05 ± 1.2e-05 |  |  |  | 9.61e-05 ± 1.4e-05
13 | U45C C70U | 0.0085 ± 0.0033 | 0.000103 ± 1.3e-05 | 0.00646 ± 0.00093 | 4580 ± 2200 | 0.000303 ± 4.5e-05 | 0.000855 ± 0.00011 | 0.00283 ± 0.00041
14 | G38U U55G | < 1e-05 |  |  |  | < 1e-05 |  | 
15 | A39U C68U | 0.00901 ± 0.0018 | 0.000444 ± 8.6e-05 | 0.00694 ± 0.0011 | 1340 ± 420 | 0.000829 ± 9e-05 | 0.00309 ± 0.00026 | 0.00636 ± 0.00063
16 | C16A C34U C71U | 1.28e-05 ± 4.6e-06 |  |  |  | < 1e-05 |  | 

Row | Variant | kcat (glucosamine-6-phosphate [1]) [s⁻¹] | self-cleavage kobs at 40 uM GlcN6P (glucosamine-6-phosphate [2]) [s⁻¹] | self-cleavage kobs at 10000 uM GlcN6P (glucosamine-6-phosphate [3]) [s⁻¹] | KM (glucosamine-6-phosphate [4]) [µM] | self-cleavage kobs at 160 uM GlcN6P (glucosamine-6-phosphate [5]) [s⁻¹] | self-cleavage kobs at 640 uM GlcN6P (glucosamine-6-phosphate [6]) [s⁻¹] | self-cleavage kobs at 2500 uM GlcN6P (glucosamine-6-phosphate [7]) [s⁻¹]
17 | C11U C71A | 0.000412 ± 2.6e-05 |  | 0.000354 ± 6.1e-05 | 1790 ± 200 | 4.15e-05 ± 1.7e-05 | 0.000106 ± 1.5e-05 | 0.00024 ± 4.4e-05
18 | G51A C67G | 2e-05 ± 6.5e-06 |  |  |  |  |  | 
19 | A12U G40A | 0.0133 ± 0.0024 | 0.000618 ± 0.00017 | 0.013 ± 0.0034 | 1110 ± 310 | 0.00156 ± 0.00048 | 0.0042 ± 0.001 | 0.00929 ± 0.0029
20 | U30A U49G C70U | 0.000102 ± 2.6e-05 |  | 8.4e-05 ± 2e-05 |  |  |  | 
21 | C11U C67A | 0.000277 ± 2.6e-05 |  | 0.000242 ± 3e-05 | 801 ± 180 | 4.36e-05 ± 1.8e-05 | 0.000121 ± 1.3e-05 | 0.000256 ± 4e-05
22 | G29U C68G | 3.07e-05 ± 6.3e-06 |  |  |  |  |  | 3.95e-05 ± 1.1e-05
23 | G59U C67U | 2.54e-05 ± 5.9e-06 |  |  |  |  |  | 3.07e-05 ± 7.5e-06
24 | A48U C67U | 0.00022 ± 1.3e-05 |  | 0.00018 ± 2e-05 | 1890 ± 230 |  | 5.32e-05 ± 7.6e-06 | 0.000135 ± 1.7e-05
25 | G41U C71G | 0.000121 ± 9e-06 |  | 0.000102 ± 9.5e-06 | 1780 ± 490 |  | 2.64e-05 ± 1.1e-05 | 8.28e-05 ± 1.7e-05
26 | A15U | 0.0104 ± 0.0019 | 0.000227 ± 4e-06 | 0.00847 ± 0.00024 | 1950 ± 440 | 0.00061 ± 2.2e-05 | 0.00245 ± 8.9e-05 | 0.00682 ± 0.00026
27 | A15G | 0.0648 ± 0.0031 | 0.00118 ± 2.4e-05 | 0.0552 ± 0.0025 | 2180 ± 120 | 0.00423 ± 0.00032 | 0.0144 ± 0.00063 | 0.0326 ± 0.0018
28 | A15C | 0.011 ± 0.00069 | 0.000227 ± 4.1e-06 | 0.00932 ± 0.00026 | 1940 ± 150 | 0.00074 ± 5.5e-05 | 0.00248 ± 0.0001 | 
29 | A15C C67G | 0.0001315 ± 6.7e-07 |  | 0.000114 ± 1.8e-05 | 1530 ± 22 |  | 3.9e-05 ± 1.4e-05 | 8.12e-05 ± 1.4e-05
30 | A15C C67A | 0.000713 ± 0.00031 | 5.14e-05 ± 1.2e-05 | 0.000858 ± 0.00022 |  | 0.000103 ± 1.7e-05 | 0.000552 ± 0.0001 | 0.000389 ± 0.00012
31 | U46A G66A | 0.000792 ± 5.9e-05 |  | 0.00063 ± 7.9e-05 | 2830 ± 440 |  | 0.000156 ± 3.3e-05 | 0.000321 ± 8.6e-05
32 | G13C C16G U55A G60C C70G | 1.82e-05 ± 7.2e-06 |  |  |  |  |  | 
